Results on seven molecules are retold here after US11913033B2, “Luciferases and methods for using same” (LIGHT BIO, INC., priority 2017, dated 2024).

For series [1], the system named is fungal luciferases. As to the kind of experiment: Bioluminescence spectra of lysed transfected HEK293N cells with 3-hydroxyhispidin or analogs. The format is biochemical. Conditions: luciferin 660 μg/ml, pH 8.0, cell lysate. Here is the method:
Plasmids comprising coding sequences of fungal luciferases necessary for expression in mammalian cells were obtained as described in Example 3 and used for the transfection of HEK293N cells. 24 hours after the transfection procedure, the cells were detached from dishes using trypsin-Versen solution (0.025% trypsin), the medium was substituted with a phosphate saline buffer, pH 8.0, by centrifugation, the cells were resuspended and lysed using ultrasound; 3-hydroxyhispidin or one of analogs thereof ((E)-6-(4-diethylamino)styryl)-3,4-dihydroxy-2H-pyran-2-one, (E)-3,4-dihydroxy-6-(4-hydroxystyryl)-2H-pyran-2-one, E)-6-(2-1H-indol-3-yl)vinyl)-3,4-dihydroxy-2H-pyran-2-one, (E)-6-(2-(1,2,3,5,6,7-hexahydropyrido[3,2,1-ij]quinoline-9-yl)vinyl)-3,4-dihydroxy-2H-pyran-2-one and (E)-3,4-dihydroxy-6-(2-(6-hydroxynaphthalene-2-yl)vinyl)-2H-pyran-2-one) at a concentration of 660 μg/ml was added to the medium.
Varian Cary Eclipse spectrofluorimeter was used to detect bioluminescence spectra. All the samples emitted light with all examined luciferins.

Series [2] concerns CT26 cells (Mus musculus carcinoma cells). The experiment in a line: Labelling of implanted tumour cells in a living mouse, IVIS imaging. It is filed as in vivo. Conditions: subcutaneous CT26 cells; luciferin mixture 0.5 mg each intraperitoneally. On the procedure:
Vector containing the coding sequence of luciferase from Neonothopanus nambi under the control of a cytomegaloviral promoter was obtained as described in Example 3. In addition, a humanized nucleotide sequence encoding luciferase from Photinus pyralis firefly was synthesized and cloned into the same vector.
The obtained constructs were used to transfect CT26 cells (Mus musculus carcinoma cells). The cells expressing luciferase from Neonothopanus nambi were injected subcutaneously into the left half of a mouse's back, while cells expressing luciferase of Photinus pyralis were injected in the same manner into the right half of a mouse's back. 10 minutes after injection, a mixture of fungal luciferin (0.5 mg) and Photinus pyralis firefly luciferin (0.5 mg) was injected intraperitoneally. Bioluminescence of the mouse was then visualized using IVIS Spectrum CT (PerkinElmer).

The test system of series [3] is HEK293NT and HeLa cells. The experiment in a line: Luminescence of mammalian cells transfected with humanized luciferases after adding 3-hydroxyhispidin. The format is cell-based. The conditions noted are these: 3-hydroxyhispidin 660 μg/ml, 24 hours after transfection. An excerpt:
Coding sequences of luciferases obtained as shown in examples 1 and 2 were optimized (humanized) for expression in mammalian cells. Humanized nucleic acids were obtained by oligonucleotide synthesis using standard techniques. The nucleotide profile of humanized nucleic acids is shown in SEQ ID NOs: 44-51, the amino acid profile of the corresponding proteins is identical to wild-type proteins shown in SEQ ID NOs: 2, 4, 6, 8, 10, 12, 14, 16. The obtained nucleic acids were cloned into pmKate2-keratin vector (Evrogen, Russia) using NheI and NotI restriction sites instead of a sequence encoding mKate2-keratin fusion protein. Plasmid DNA was purified and transfected into HEK293NT and HeLa cells using FuGENE HD Transfection Reagent (Promega, USA) according to the manufacturer's protocol. 24 hours after the transfection procedure, 3-hydroxyhispidin at a concentration of 660 μg/ml was added to the medium, and cell luminescence was detected using IVIS Spectrum CT (PerkinElmer). Intensity of light emission of all samples was by an order of magnitude and greater than the signal coming from the non-transfected control cells (FIG. 2). […]

Series [4] relates to cells of HEK293NT line. As to the kind of experiment: Cell labelling: luciferase co-transfected into HEK293NT cells, microscopy. The format is cell-based, human. Here is the method: Vector containing luciferase from Neonothopanus nambi under the control of a cytomegaloviral promoter obtained as described in Example 3 was co-transfected with pTurboFP635-N vector (Evrogen, Russia) encoding the red fluorescent protein, into the cells of HEK293NT line. Transfection was performed using FuGENE HD transfection reagent (Promega) according to the protocol recommended by the manufacturer. 24 hours after the transfection procedure, 3-hydroxyhispidin was added to the medium up to a final concentration of 660 μg/ml; and cell luminescence was analysed using Leica DM6000 microscope with a 20× objective. The cells were visualized in transmitted light, in the green and red channels for detecting fluorescence (FIG. 6).

Series [5] can be described thus: Bioluminescence spectrum of luciferase expressed in Pichia pastoris, supernatant plus 3-hydroxyhispidin. The format is biochemical. The conditions noted are these: 3-hydroxyhispidin (25 μM) in 1% DDM. On the procedure: In order to analyse the bioluminescence of expressed luciferase, Pichia pastoris colonies in which luminescence was observed were isolated and grown in 750 ml flasks filled with 250 ml of YPD medium for 72 hours at 30° C. and stirred at 200 rpm. Luciferase-expressing cells were then pelleted by centrifugation at 5000 g for 15 minutes at 4° C. The obtained pellet was resuspended in a 0.1 M phosphate buffer, pH 7.4, comprising 0.1% DDM for two hours at 4° C. The suspension was centrifuged at 21000 g for 30 min at 4° C. The bioluminescence reaction was activated by adding 750 μl of the obtained supernatant to 250 μl of the solution of 3-hydroxyhispidin (25 μM) in 1% DDM. Varian Cary Eclipse spectrofluorimeter was used to detect bioluminescence.

The nature of series [6]: Bioluminescence of isolated recombinant luciferase fragments from E. coli with 3-hydroxyhispidin. Conditions: 3-hydroxyhispidin added. The format is biochemical. On the procedure:
Sequence SEQ ID No: 52 was operably linked to the 5′ end of the nucleic acids encoding functional fragments of luciferases (SEQ ID NOs: 19, 21, 23, 25, 27, 29, 31, 33); the obtained constructs were cloned into pET-23 vector using BamHI and HindIII restriction endonucleases. The vector was used to transform Escherichia coli cells of BL21-CodonPlus strain (the derivative of Stratagene BL21-Gold high-yield strain) The cells were plated on Petri dishes containing LB medium comprising 1.5% agar, 100 μg/ml of ampicillin and 100 μg/ml of chloramphenicol, and incubated overnight at 37° C. Escherichia coli colonies were then transferred to 4 ml of liquid LB medium supplemented with ampicillin and chloramphenicol and incubated overnight at 37° C., with rocking. 1 ml of the overnight culture was transferred to 100 ml of Overnight Express Autoinduction medium (Novagen) containing preliminary added ampicillin and chloramphenicol. The culture was grown at 37° C. for 2.5 hours until it reached an optical density of 0.6 OE at 600 nm, and then it was grown at room temperature for 16 hours. The cells were then pelleted by centrifugation at 4500 rpm for 20 minutes in Eppendorf 5810R centrifuge, resuspended in 35 ml of buffer (50 mM Tris HCl, pH 8.0, 150 mM NaCl) and sonicated. […]

On to `O=c1oc(/C=C/c2ccc3cc(O)ccc3c2)cc(O)c1O` [(E)-3,4-dihydroxy-6-(2-(6-hydroxynaphthalene-2-yl)vinyl)-2H-pyran-2-one], for which, in series [1], the luminescence optimum displacement entry was “shift to the long-wavelength region” and the “wavelength of significantly emitted photons” value was “more than 580 nm”.
Turning to `O=c1oc(/C=C/c2c[nH]c3ccccc23)cc(O)c1O` [(E)-6-(2-1H-indol-3-yl)vinyl)-3,4-dihydroxy-2H-pyran-2-one], the luminescence optimum displacement entry in series [1] is “shift to the short-wavelength region”.
For the molecule “luciferase from Photinus pyralis: firefly luciferase from Photinus pyralis, humanized sequence, comparison in mouse tumour labelling [reference compound]”, the “intensity of light emission of tumour” value in series [2] worked out at 21000000 cu.

B1: SEQ ID No:51 with the replacement of valine with isoleucine at position 146: Panellus stipticus luciferase variant with valine replaced by isoleucine at position 146 (protein, listed as Panellus stipticus)
chain: MNINLKALIGVCAVLITAAVFPFVRKDYHTFLEGGPSYAPQNLQGYIIVLVLSLFRGEETGLEIYDRLPEKRRWLEELPVREGPRPKTTSHIIQRQLNQHVDPDFGMNSLKGSVIRRLQSRHQDITQLALSKFEFHAEAIFLRPDIAINDPKHVPSHDTVRRTKREIAHMHDYHDYTCHLALAAQDGKQVIAKGWGQRHPLAGPGMPGPPTEWTFLYAPRNEAEVQVLETIIEASIGYMSNAPALGGSE
For the molecule B1, the “oxidation of 3-hydroxyhispidin in a bioluminescent reaction” value in series [3] is listed as “capable of the oxidation of 3-hydroxyhispidin”.

B2: luciferase from Neonothopanus nambi: fungal luciferase from Neonothopanus nambi oxidizing 3-hydroxyhispidin with emission of light (protein, listed as Neonothopanus nambi)
chain: MRINISLSSLFERLSKLSSRSIAITCGVVLASAIAFPIIRRDYQTFLEVGPSYAPQNFRGYIIVCVLSLFRQEQKGLAIYDRLPEKRRWLADLPFREGTRPSITSHIIQRQRTQLVDQEFATRELIDKVIPRVQARHTDKTFLSTSKFEFHAKAIFLLPSIPINDPLNIPSHDTVRRTKREIAHMHDYHDCTLHLALAAQDGKEVLKKGWGQRHPLAGPGVPGPPTEWTFLYAPRNEEEARVVEMIVEASIGYMTNDPAGKIVENAK
On to B2, for which the “intensity of light emission of tumour” value in series [2] came to 20000000 cu. For the same molecule, the “light signal of expressing cells” value in series [4] (3-hydroxyhispidin 660 μg/ml, 24 hours after transfection) is given as “distinct light signal in the green region of the spectrum”. The “toxicity of luciferase expression to the cells” value in series [4] (HEK293NT cells) is “No signs of toxicity”. In addition, the “bioluminescence spectrum compared with Neonothopanus nambi mycelium bioluminescence” value in series [5] was “substantially identical”.

B3: functional fragment of luciferase from Omphalotus olearius: recombinant Omphalotus olearius luciferase with N-terminal transmembrane domain removed, expressed in E. coli (protein)
chain: FIRKDYQTFLEVGPSYAPQNLQGYIIVCVLSLFRQEQKDVAIYDRLPEKRRWLGDLPFREGPRPSITSHIIQRQRTQLADAEFATKELIGKIIPRVQARHTNTTFLSTSKFEFHAQAIFLLPSIPINDPQNIPSHDTVRRTKREIAHMHDYHDCTLHLALAAQDGKEVLEKGWGQRHPLAGPGVPGPPTEWTFLYAPRSEEEVRVVEMIVEASVVYMTNDPADKIVEATVQGTEE
modifications: Amino acid sequence of the functional fragment of luciferase from Omphalotus olearius
notes: recombinant Omphalotus olearius luciferase with N-terminal transmembrane domain removed, expressed in E. coli
For the molecule B3, the “intensity of emitted light, rank among recombinant functional fragments” value in series [6] was “lowest intensity”.

B4: functional fragment of luciferase from Neonothopanus nambi: recombinant Neonothopanus nambi luciferase with N-terminal transmembrane domain removed, expressed in E. coli (protein)
chain: IIRRDYQTFLEVGPSYAPQNFRGYIIVCVLSLFRQEQKGLAIYDRLPEKRRWLADLPFREGTRPSITSHIIQRQRTQLVDQEFATRELIDKVIPRVQARHTDKTFLSTSKFEFHAKAIFLLPSIPINDPLNIPSHDTVRRTKREIAHMHDYHDCTLHLALAAQDGKEVLKKGWGQRHPLAGPGVPGPPTEWTFLYAPRNEEEARVVEMIVEASIGYMTNDPAGKIVENAK
modifications: Amino acid sequence of the functional fragment of luciferase from Neonothopanus nambi
notes: recombinant Neonothopanus nambi luciferase with N-terminal transmembrane domain removed, expressed in E. coli
B4: the “intensity of emitted light, rank among recombinant functional fragments” value in series [6] was “highest intensity”.
